Measurements reported in article PMC4945140 (Molecular Biology of the Cell, 2016).

B1: His6-MBP-Hsl1(611–950) fusion protein (domain or fragment)
chain: RETVHDNEMPLPQLPKSPSRYSLSRRAIHASPSTKSIHKSLSRKNIAATVAARRTLQNSASKRSLYSLQSISKRSLNLNDLLVFDDPLPSKKPASENVNKSEPHSLESDSDFEILCDQILFGNALDRILEEEEDNEKERDTQRQRQNDTKSSADTFTISGVSTNKENEGPEYPTKIEKNQFNMSYKPSENMSGLSSFPIFEKENTLSSSYLEEQKPKRAALSDITNSFNKMNKQEGMRIEKKIQREQLQKKNDRPSPLKPIQHQELRVNSLPNDQGKPSLSLDPRRNISQPVNSKVESLLQGLKFKKEPASHWTHERGSLFMSEHVEDEKPVKASDVSIE
B2: Cdc11-capped septin hetero-octamers (Cdc11-Cdc12-Cdc3-Cdc10-Cdc10-Cdc3-Cdc12-Cdc11) (complex)
chain 1: MSGIIDASSALRKRKHLKRGITFTVMIVGQSGSGRSTFINTLCGQQVVDTSTTILLPTDTSTEIDLQLREETVELEDDEGVKIQLNIIDTPGFGDSLDNSPSFEIISDYIRHQYDEILLEESRVRRNPRFKDGRVHCCLYLINPTGHGLKEIDVEFIRQLGSLVNIIPVISKSDSLTRDELKLNKKLIMEDIDRWNLPIYNFPFDEDEISDEDYETNMYLRTLLPFAIIGSNEVYEMGGDVGTIRGRKYPWGILDVEDSSISDFVILRNALLISHLHDLKNYTHEILYERYRTEALSGESVAAESIRPNLTKLNGSSSSSTTTRRNTNPFKQSNNINNDVLNPASDMHGQSTGENNETYMTREEQIRLEEERLKAFEERVQQELLLKRQELLQREKELREIEARLEKEAKIKQEE
chain 2: MSAATATAAPVPPPVGISNLPNQRYKIVNEEGGTFTVMLCGESGLGKTTFINTLFQTVLKRADGQQHRQEPIRKTVEIDITRALLEEKHFELRVNVIDTPGFGDNVNNNKAWQPLVDFIDDQHDSYMRQEQQPYRTKKFDLRVHAVLYFIRPTGHGLKPIDIETMKRLSTRANLIPVIAKADTLTAQELQQFKSRIRQVIEAQEIRIFTPPLDADSKEDAKSGSNPDSAAVEHARQLIEAMPFAIVGSEKKFDNGQGTQVVARKYPWGLVEIENDSHCDFRKLRALLLRTYLLDLISTTQEMHYETYRRLRLEGHENTGEGNEDFTLPAIAPARKLSHNPRYKEEENALKKYFTDQVKAEEQRFRQWEQNIVNERIRLNGDLEEIQGKVKKLEEQVKSLQVKKSHLK
chain 3: MSLKEEQVSIKQDPEQEERQHDQFNDVQIKQESQDHDGVDSQYTNGTQNDDSERFEAAESDVKVEPGLGMGITSSQSEKGQVLPDQPEIKFIRRQINGYVGFANLPKQWHRRSIKNGFSFNLLCVGPDGIGKTTLMKTLFNNDDIEANLVKDYEEELANDQEEEEGQGEGHENQSQEQRHKVKIKSYESVIEENGVKLNLNVIDTEGFGDFLNNDQKSWDPIIKEIDSRFDQYLDAENKINRHSINDKRIHACLYFIEPTGHYLKPLDLKFMQSVYEKCNLIPVIAKSDILTDEEILSFKKTIMNQLIQSNIELFKPPIYSNDDAENSHLSERLFSSLPYAVIGSNDIVENYSGNQVRGRSYPWGVIEVDNDNHSDFNLLKNLLIKQFMEELKERTSKILYENYRSSKLAKLGIKQDNSVFKEFDPISKQQEEKTLHEAKLAKLEIEMKTVFQQKVSEKEKKLQKSETELFARHKEMKEKLTKQLKALEDKKKQLELSINSASPNVNHSPVPTKKKGFLR
chain 4: MDPLSSVQPASYVGFDTITNQIEHRLLKKGFQFNIMVVGQSGLGKSTLINTLFASHLIDSATGDDISALPVTKTTEMKISTHTLVEDRVRLNINVIDTPGFGDFIDNSKAWEPIVKYIKEQHSQYLRKELTAQRERFITDTRVHAILYFLQPNGKELSRLDVEALKRLTEIANVIPVIGKSDTLTLDERTEFRELIQNEFEKYNFKIYPYDSEELTDEELELNRSVRSIIPFAVVGSENEIEINGETFRGRKTRWSAINVEDINQCDFVYLREFLIRTHLQDLIETTSYIHYEGFRARQLIALKENANSRSSAHMSSNAIQR

Tests used:
[1] = molecular target: B2; experiment: co-sedimentation
co-sedimentation = molecular target: the molecule itself; experiment: co-sedimentation

Binder | binding result [1] | binding result (co-sedimentation)
B1 | binds | –
B2 | – | binds
